The values that follow come from the supplement of paper PMC12764529.

Series [1] can be described thus: folding stability dG unfold (combined trypsin and chymotrypsin); higher = more stable. In outline: (§1)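 Sequencing followed digestion of designed mini-proteins with trypsin and chymotrypsin, each at 11 concentrations in threefold dilutions together with a no-protease condition. The mini-proteins were under 80 residues, had no cysteine, sat in a PA-tagged cDNA display construct, and were kept only if AlphaFold2 dimer inter-PAE was above 15. From the counts, Bayesian fitting gave K50, and unfolding free energy was derived against a sequence-predicted unfolded-state K50 and a shared folded-state K50, per protease or combined.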

The nature of series [2]: folding stability dG unfold from trypsin proteolysis; higher = more stable. The method, boiled down:
as §1

The nature of series [3]: folding stability dG unfold from chymotrypsin proteolysis; higher = more stable. The method, boiled down: as §1

± gives the half width of the 95% confidence interval.

Take “SAGGSAMTLRLELRVRLQVFNEDGELLGERELDIEIELEGEPLEVPPPPEIDPEEAARLLGLDPDGSAGGSA [r15_572_TrMRF]”: the “folding stability dG unfold” value in series [1] was determined as 2.37 ± 0.25 kcal/mol; in series [2], 0.909 ± 0.098 kcal/mol; in series [3], 2.84 ± 0.039 kcal/mol.

“SAGGSAMTTIVKTEPPTLDEEGNPYIRLTIKFPNGGTTTITLAPSELPQYLADLPPGFEVEEINPLSAGGSA [r15_339_JUSTAS]”: the figures for the “folding stability dG unfold” value in series [1], in series [2] and in series [3] were 2.65 ± 0.11 kcal/mol, 2.41 ± 0.11 kcal/mol and 2.69 ± 0.038 kcal/mol, respectively.

With “SAGGSAMTTVTWTFPPSTSVEEAIEALKAQLEAERNEKIEIPSISVSTTGDTITVTLPIKIEPLPASAGGSA [r15_105_JUSTAS]”, the “folding stability dG unfold” value came out at 1.26 ± 0.14 kcal/mol in series [1], 1.86 ± 0.049 kcal/mol in series [2] and 0.327 ± 0.22 kcal/mol in series [3].

In the case of “SAGGSAMTVEELKELFPGYPITEITDFQPVDGWYTLSIKYPNNGKKRQINVEGMPPELAKEIMELISAGGSA [r15_830_TrROS]”, the “folding stability dG unfold” value in series [1] is 0.0457 ± 0.098 kcal/mol; in series [2] it was 0.161 ± 0.036 kcal/mol; in series [3], -0.394 ± 0.21 kcal/mol.

As for “SAGGSAMTVTKVGSETKTDPAKGIVTTTEITKLPTGGLTKTVTTTTIEGGKVKSSTTTTTAIPVGTSAGGSA [r15_283_JUSTAS]”, the “folding stability dG unfold” value in series [1] is 0.104 ± 0.085 kcal/mol; in series [2] it was -0.156 ± 0.061 kcal/mol; in series [3] it was 0.266 ± 0.065 kcal/mol.

Turning to “SAGGSAMTVTVELEFEPVTVTDADGKEREVPVRVKVTAKVELVRDPETGELVERVEVTSIEIEVEPSAGGSA [r15_884_TrROS_Hall]”, the “folding stability dG unfold” value in series [1] came out at 1.87 ± 0.15 kcal/mol; in series [2], 1.73 ± 0.069 kcal/mol; in series [3], 1.92 ± 0.079 kcal/mol.

For “SAGGSAMTVTYTPSTKTITITDPSNGKPVKVTVTEEKPVVPGKNVYELTVTVPDTGGEKKILITLPSAGGSA [r15_209_JUSTAS]”, the “folding stability dG unfold” value in series [1] is 0.55 ± 0.11 kcal/mol; in series [2], 0.848 ± 0.055 kcal/mol; in series [3], -0.192 ± 0.15 kcal/mol.

Consider “SAGGSAMTVVKVTLKSPSGTTTVTLPAEEWERFLAAPEVSKTWTLTEVVEEEEPPPELDPEAVELGSAGGSA [r15_460_JUSTAS]”, for which the figures for the “folding stability dG unfold” value in series [1], in series [2] and in series [3] were 0.864 ± 0.3 kcal/mol, 0.626 ± 0.11 kcal/mol and 1.12 ± 0.15 kcal/mol, respectively.

In the case of “SAGGSAMTYTITLKTPGSQSLELSLDEKLKLLSQTIDPNTGVTTLTLEGDPEEAKKLEQEIKEKLASAGGSA [r15_662_JUSTAS]”, the “folding stability dG unfold” value in series [1] was 1.56 ± 0.17 kcal/mol; in series [2], 1.56 ± 0.059 kcal/mol; in series [3], 1.66 ± 0.11 kcal/mol.

As for “SAGGSAMVDKTMTEEEARAFAEASGDPRVTVEPVENPNNDPNAPKKWRITVDGSGTPGSTILFTSPSAGGSA [r15_428_JUSTAS]”, the “folding stability dG unfold” value is -0.55 ± 0.089 kcal/mol in series [1], -0.398 ± 0.12 kcal/mol in series [2] and -0.928 ± 0.28 kcal/mol in series [3].

Consider “SAGGSAMVRLPDGTLVIDVKLPEDRPDAKVTVTVLEDGSPVGSVDVNTGKVTISVSPGVSVSITVESAGGSA [r15_180_JUSTAS]”, for which the “folding stability dG unfold” value was determined as 1.79 ± 0.052 kcal/mol in series [1], 2.12 ± 0.051 kcal/mol in series [2] and 1.53 ± 0.046 kcal/mol in series [3].

As to “SAGGSAMVSLEEAKEATLREVKAALGFSPDATPEELRARGVPVRVPITVRDEKGNVIAELELELPGSAGGSA [r15_391_JUSTAS]”, the figures for the “folding stability dG unfold” value in series [1], in series [2] and in series [3] were 0.37 ± 0.039 kcal/mol, -0.118 ± 0.04 kcal/mol and 0.571 ± 0.046 kcal/mol, respectively.

“SAGGSAMYTVTLTLPPSLAIPPDSTITVTFPDGSTETYSVDSGPVTITLTAPADGSTSVGVSLSVPSAGGSA [r15_992_JUSTAS]”: the entries for the “folding stability dG unfold” value in series [1], in series [2] and in series [3] were 3.27 ± 0.1 kcal/mol, 2.6 ± 0.097 kcal/mol and 3.67 ± 0.04 kcal/mol, respectively.

For the sequence “SAGGSANFNVKLEIKIIERNPGNPDYVIVRIKVEHRHPNPDGNPMEHRRPIPWIMITDPEEIKEFISAGGSA [r15_1019_TrROS]”, the entries for the “folding stability dG unfold” value in series [1], in series [2] and in series [3] were 2.36 ± 0.084 kcal/mol, 2.32 ± 0.12 kcal/mol and 2.39 ± 0.029 kcal/mol, respectively.

As for “SAGGSANGKRVEVPITIFFYRRDPEDGKWEPIFPFEIPIRIPVPPGAEVTIEIEFTGNMFRITIEVSAGGSA [r15_537_TrROS]”, the “folding stability dG unfold” value was 4.09 ± 0.13 kcal/mol in series [1], 3.19 ± 0.11 kcal/mol in series [2] and 4.53 ± 0.094 kcal/mol in series [3].

As to “SAGGSANLPPGQPKIITITIPLGEEVRNPDGEPMTPEDIADNFQERFGNIEVEKSPNGWLEVTFWLSAGGSA [r15_645_TrROS]”, the “folding stability dG unfold” value stood at 1.18 ± 0.19 kcal/mol in series [1], 1.3 ± 0.06 kcal/mol in series [2] and 0.637 ± 0.15 kcal/mol in series [3].

Consider “SAGGSANVQVEQTGDGKIKIEFPWYGAEITLNPKKGDIEVEVLPNYKNGQPPPEDEVKNLAKEILDSAGGSA [r15_735_TrROS]”, for which the figures for the “folding stability dG unfold” value in series [1], in series [2] and in series [3] were 0.739 ± 0.13 kcal/mol, -0.0532 ± 0.092 kcal/mol and 0.971 ± 0.047 kcal/mol, respectively.

With “SAGGSAPAKVEPLRVKIEFTPPNGEKHTFPMEIHRVHDNAIEIQDGGQPIRIPPNLDNIQITDIELSAGGSA [r15_510_TrROS]”, the “folding stability dG unfold” value is 0.356 ± 0.14 kcal/mol in series [1], -0.614 ± 0.34 kcal/mol in series [2] and 0.558 ± 0.044 kcal/mol in series [3].
